PMC3044691
Read-outs that look alike come from different tables or passages of the source.

Legend:
[1] = molecular target: integrin α4β7, P13612;P26010; assay: steady-state binding assay on primary α4β7+/CD4+ T-cells (flow cytometry, MFI); conditions: read off a plot
[2] = molecular target: integrin α4β7 (human (endogenous in primary CD4+ T cells)) (UniProt P13612); assay: flow cytometry on cells; α4β7-reactivity: biotinylated gp120 on retinoic acid-cultured primary CD4+ T cells with CD4 masked by unlabeled mAb Leu3A (α4 mAb HP2/1 as specificity control); HBS with 100 µM CaCl2 and 1 mM MnCl2, on ice; Neutravidin PE; MFI of the CD45RO+/CCR5+ gate; steady state
[3] = molecular target: integrin α4β7 (human (endogenous in primary CD4+ T cells)) (UniProt P13612); assay: as above; remark: listed apart in the source
[4] = first point, plotted at x = 0 µg gp120, parent: est. 20

## 92Ug037 w.t. gp120 (subtype A) N187Q; N188Q
[1]; parent: est. 27
  response: 540 MFI

## 92Ug037 w.t. gp120 (subtype A) N137Q
[1]; parent: est. 27
  response: 160 MFI

## AN1 NN140/143QQ,N204Q gp120
[2]
  fold increase in α4β7-reactivity over AN1 w.t. expressed in CHO-S cells: 96 fold

## AN1 w.t. gp120 expressed in CHO lec1 cells
[2]
  fold α4β7-reactivity over CHO S AN1 w.t. gp120: 100 fold
[3]
  fold α4β7-reactivity over CHO S AN1 w.t. gp120: > 100 fold

## 93MW959 w.t. gp120 (subtype C) N139Q
[1]; parent: est. 300
  response: 500 MFI

## 92Ug037 w.t. gp120 (subtype A) N133Q
[1]; parent: est. 27
  response: 72 MFI

## 92Ug037N144Q gp120 (natural protein)
[2]
  fold increase in α4β7-reactivity over w.t. 92Ug037: 20 fold

## 92Ug037N355Q gp120 (natural protein)
[2]
  fold increase in α4β7-reactivity over w.t. 92Ug037: 27 fold

## Z205F.ENV1.1 0Mfounder gp120 (natural protein)
[2]
  fold bound to α4β7 over bound to CD4: 37 fold
  fold α4β7-reactivity over the 0-month escape gp120: 8 fold
  fold α4β7-reactivity over the 8- and 38-month escape gp120s: > 17 fold

## AN1 NN140/143QQ gp120
[2]
  fold increase in α4β7-reactivity over AN1 w.t. expressed in CHO-S cells: 25 fold

## QA203M41 chimeric gp120 (V1/V2 of QA203M41 in a Q23 backbone) N22Q; N25Q
[1]; [4]
  response: 300 MFI
[1]; gp120 0.5 µg, parent: est. 20
  response: 270 MFI
[1]; gp120 1 µg, parent: est. 25
  response: 580 MFI
[1]; gp120 1 µg, parent: est. 45
  response: 600 MFI
[1]; gp120 2 µg, parent: est. 30
  response: 1400 MFI
[1]; gp120 2 µg, parent: est. 110
  response: 1300 MFI
[1]; gp120 4 µg, parent: est. 50
  response: 1700 MFI
[1]; gp120 4 µg, parent: est. 230
  response: 2000 MFI

## 92Ug037N385Q gp120 (natural protein)
[2]
  fold increase in α4β7-reactivity over w.t. 92Ug037: 8 fold

## QA203M41 chimeric gp120 (V1/V2 of QA203M41 in a Q23 backbone) N22Q; N25Q; N66Q; N67Q
[1]; [4]
  response: 200 MFI
[1]; gp120 1 µg, parent: est. 25
  response: 410 MFI
[1]; gp120 2 µg, parent: est. 30
  response: 750 MFI
[1]; gp120 4 µg, parent: est. 50
  response: 1300 MFI

## QA203M41 chimeric gp120 (V1/V2 of QA203M41 in a Q23 backbone) N66Q; N67Q
[1]; [4]
  response: 50 MFI
[1]; gp120 2 µg, parent: est. 30
  response: 180 MFI
[1]; gp120 4 µg, parent: est. 50
  response: 280 MFI

## 93MW959 w.t. gp120 (subtype C) N145Q
[1]; parent: est. 300
  response: 550 MFI

## AN1 N204Q gp120
[2]
  fold increase in α4β7-reactivity over AN1 w.t. expressed in CHO-S cells: 23 fold
